Assays:
[1] = molecular target: α-subunit of the P. americana high conductance calcium-activated potassium channel (pSlo) (Periplaneta americana); assay: cell-based or functional assay
[2] = molecular target: Cav channels of P. americana DUM neurons (Periplaneta americana); assay: cell-based or functional assay

rU-ACTX-Hv1a (peptide) gave an IC50 of block of pSlo currents in HEK293 cells, whole-cell patch clamp [1] of 579 nM and an IC50 of block of Cav currents in DUM neurons, whole-cell patch clamp [2] of 409 nM.

From US20080260789A1
